Assay [1] addresses T1, recombinant 10x His-tagged CD4 protein (extracellular domain of human CD4, GS linker, 10x histidine tag) (human, UniProt P01730 26-390).
T1 construct: also called recombinant CD4; sCD4 (analyte)
The experiment in a line: biolayer interferometry. For orientation: BLI is a label-free optical method that tracks binding on a fibre tip over time.

For assay [2], the target named is T1, recombinant 10x His-tagged CD4 protein …. The experiment in a line: biolayer interferometry KD against the previously estimated KD >2 mM between CD4 and HLA class II.
For assay [3] the target is unchanged. Kind of assay: biolayer interferometry (Octet Red), biotinylated DP4 on streptavidin sensors, CD4 as analyte, steady-state analysis.

Bounds are passed on as bounds.

B1: biotinylated recombinant wild-type DP4 (extracellular domains of DPA1*01:03 and wild-type DPB1*04:01 with leucine zippers) (peptide-MHC)
MHC II alpha: IKADHVSTYAAFVQTHRPTGEFMFEFDEDEMFYVDLDKKETVWHLEEFGQAFSFEAQGGLANIAILNNNLNTLIQRSNHTQATNDPPEVTVFPKEPVELGQPNTLICHIDKFFPPVLNVTWLCNGELVTEGVAESLFLPRTDYSFHKFHYLTFVPSAEDFYDCRVEHWGLDQPLLKHWEAQEPIQMPETTETGGGGSLEIRAAFLRQRNTALRTEVAELEQEVQRLENEVSQYETRYGPLGGGKGSHHHHHHHHHH
MHC II beta: RATPENYLFQGRQECYAFNGTQRFLERYIYNREEFARFDSDVGEFRAVTELGRPAAEYWNSQKDILEEKRAVPDRMCRHNYELGGPMTLQRRVQPRVNVSPSKKGPLQHHNLLVCHVTDFYPGSIQVRWFLNGQEETAGVVSTNLIRNGDWTFQILVMLEMTPQQGDVYTCQVEHTSLDSPVTVEWKAQSDSARSKGGGGSLEIEAAFLERENTALETRVAELRQRVQRLRNRVSQYRTRYGPLGGGKGSGLNDIFEAQKIEWHE
notes: also called biotinylated wild-type DP4 (ligand)
On to B1, for which, in assay [1], the binding result is given as “no binding (tested: 26 µM)”.

B2: biotinylated recombinant DP4^L112W/V141M (extracellular domains of DPA1*01:03 and DPB1*04:01 L112W/V (peptide-MHC)
MHC II alpha: IKADHVSTYAAFVQTHRPTGEFMFEFDEDEMFYVDLDKKETVWHLEEFGQAFSFEAQGGLANIAILNNNLNTLIQRSNHTQATNDPPEVTVFPKEPVELGQPNTLICHIDKFFPPVLNVTWLCNGELVTEGVAESLFLPRTDYSFHKFHYLTFVPSAEDFYDCRVEHWGLDQPLLKHWEAQEPIQMPETTETGGGGSLEIRAAFLRQRNTALRTEVAELEQEVQRLENEVSQYETRYGPLGGGKGSHHHHHHHHHH
MHC II beta: RATPENYLFQGRQECYAFNGTQRFLERYIYNREEFARFDSDVGEFRAVTELGRPAAEYWNSQKDILEEKRAVPDRMCRHNYELGGPMTLQRRVQPRVNVSPSKKGPLQHHNWLVCHVTDFYPGSIQVRWFLNGQEETAGVMSTNLIRNGDWTFQILVMLEMTPQQGDVYTCQVEHTSLDSPVTVEWKAQSDSARSKGGGGSLEIEAAFLERENTALETRVAELRQRVQRLRNRVSQYRTRYGPLGGGKGSGLNDIFEAQKIEWHE
notes: also called DPR^L112/V141M; biotinylated DP4^L112W/V141M (ligand)
The term Kd denotes the free concentration of one partner at which half of the binding sites on the other are occupied at equilibrium, for simple one-to-one binding. Regarding B2, the “fold improvement in the binding affinity” value in assay [2] is ≥ 200 fold. In assay [3], the Kd came to 8.9 µM.

The values are drawn from patent publication US20220291215A1 (UNIVERSITY HEALTH NETWORK, published 2022).
